Measured values: patent US20220135638A1 (Takeda / Millennium, published 2022)
Numbered stars: 1 amine (or outer) side, 2 acyl side, 3 side chain; on linkers, the order of the positions; unused ones are H or OH. Square brackets hold non-standard residues; d marks the D form. Primed or numbered codes have the meaning given here. Side chains are listed from the residue outwards. Ends that are not written are not given here. * marks the point of attachment. C20 diacid = O=C(O)CCCCCCCCCCCCCCCCCCC(=O)*; C18 diacid = O=C(O)CCCCCCCCCCCCCCCCC(=O)*; C16 diacid = O=C(O)CCCCCCCCCCCCCCC(=O)*; γGlu = O=C(O)[C@H](CCC(=O)[*:2])N[*:1]; Iva = CC[C@](C)(N)C(=O)O; PEG3′ = not defined here; AGlu = not defined here; Aib = CC(C)(N)C(=O)O

T1: full-length human GIPR (GenBank NM_000164) with an N-terminal FLAG tag on HEK-293T cells (human), P48546
T1 chain: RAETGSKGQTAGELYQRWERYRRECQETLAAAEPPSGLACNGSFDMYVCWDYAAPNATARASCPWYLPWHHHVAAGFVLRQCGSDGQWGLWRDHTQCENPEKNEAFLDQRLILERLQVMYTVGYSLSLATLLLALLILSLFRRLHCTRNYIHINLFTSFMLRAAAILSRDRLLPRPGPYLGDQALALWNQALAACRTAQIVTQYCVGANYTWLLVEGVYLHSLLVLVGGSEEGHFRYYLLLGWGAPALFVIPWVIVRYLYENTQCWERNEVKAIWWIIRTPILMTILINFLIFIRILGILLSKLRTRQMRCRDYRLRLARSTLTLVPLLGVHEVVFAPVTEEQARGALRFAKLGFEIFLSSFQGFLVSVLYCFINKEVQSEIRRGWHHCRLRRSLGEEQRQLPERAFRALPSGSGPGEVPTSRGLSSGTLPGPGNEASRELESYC

T2: full-length human GLP-1R (GenBank NM_002062) with an N-terminal FLAG tag on HEK-293T cells (human), P43220
T2 chain: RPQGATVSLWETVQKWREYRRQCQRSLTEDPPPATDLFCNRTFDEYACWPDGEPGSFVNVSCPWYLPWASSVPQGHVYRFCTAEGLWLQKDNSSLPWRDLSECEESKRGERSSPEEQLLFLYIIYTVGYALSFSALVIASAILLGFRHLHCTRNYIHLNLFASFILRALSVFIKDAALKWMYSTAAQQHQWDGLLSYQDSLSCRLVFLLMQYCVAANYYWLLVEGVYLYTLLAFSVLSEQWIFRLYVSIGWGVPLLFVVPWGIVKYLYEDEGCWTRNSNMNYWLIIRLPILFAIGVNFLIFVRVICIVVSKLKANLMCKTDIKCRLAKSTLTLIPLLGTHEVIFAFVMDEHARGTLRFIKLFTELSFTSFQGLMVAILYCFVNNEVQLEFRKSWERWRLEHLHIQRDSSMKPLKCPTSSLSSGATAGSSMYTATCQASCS

T3: human GLP-1R (Genebank Accession No. NM_002062) on hGLP-1R/CRE-luc/CHO-K1 cells (human), P43220
T3 chain: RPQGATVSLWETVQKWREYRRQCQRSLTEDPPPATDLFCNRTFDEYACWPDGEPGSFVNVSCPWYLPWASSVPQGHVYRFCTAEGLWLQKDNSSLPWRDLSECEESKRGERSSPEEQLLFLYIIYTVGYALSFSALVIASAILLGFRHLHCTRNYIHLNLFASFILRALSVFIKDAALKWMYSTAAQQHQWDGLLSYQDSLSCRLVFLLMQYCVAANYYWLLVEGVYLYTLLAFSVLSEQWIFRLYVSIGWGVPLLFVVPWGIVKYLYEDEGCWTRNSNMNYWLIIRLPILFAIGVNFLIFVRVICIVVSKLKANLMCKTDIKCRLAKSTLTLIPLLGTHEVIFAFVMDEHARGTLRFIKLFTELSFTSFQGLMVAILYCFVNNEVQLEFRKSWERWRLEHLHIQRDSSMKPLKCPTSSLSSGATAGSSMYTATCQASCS

T4: human GIPR (Genebank Accession No. U39231) on hGIPR/CRE-LUC/CHO-K1 cells (human), P48546
T4 chain: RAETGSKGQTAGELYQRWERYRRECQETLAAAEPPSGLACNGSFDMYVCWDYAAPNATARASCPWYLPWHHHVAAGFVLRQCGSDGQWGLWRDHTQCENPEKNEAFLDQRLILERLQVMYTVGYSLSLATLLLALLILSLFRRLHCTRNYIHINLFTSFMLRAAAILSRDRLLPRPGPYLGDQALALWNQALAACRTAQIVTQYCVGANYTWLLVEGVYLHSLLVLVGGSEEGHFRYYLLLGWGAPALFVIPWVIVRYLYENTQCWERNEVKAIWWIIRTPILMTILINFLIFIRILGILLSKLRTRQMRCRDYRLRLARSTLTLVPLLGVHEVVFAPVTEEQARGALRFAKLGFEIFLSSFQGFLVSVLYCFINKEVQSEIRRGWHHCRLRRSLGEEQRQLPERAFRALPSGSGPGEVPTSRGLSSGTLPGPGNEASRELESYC


Assays:
Assay in all cases: cell-based or functional assay
[1] = biological target: T1, full-length human GIPR (GenBank …)
[2] = biological target: T2, full-length human GLP-1R (GenBank …)
[3] = biological target: T3, human GLP-1R (Genebank Accession No. …)
[4] = biological target: T4, human GIPR (Genebank Accession No. …)
[5] = biological target: human GLP-1R (Genebank Accession No. NM_002062) on hGLP-1R/CRE-luc/CHO-K1 cells (human, UniProt P43220 24-463)

Row | Binder | GIP EC50(pM) [1] | GLP EC50 [2] | hGLP-1R (Reporter gene assay)(EC50) [3] | hGIPR (polyclonal) Reporter (EC50) [4] | hGLP-1R (Reporter gene assay)(EC50) [5]
1 | Y[Aib]EGTFISDYSIALDR[Aib]HQ[Aib]NFVNW[Iva]LAQRGGGGSK([PEG3′-PEG3′-γGlu-C18 diacid]) (ends and bridges not checked) [Compound No 942] | 1.4 pM | 4.3 nM |  |  | 
2 | Y[Aib]EGTVVSLYSI[Aib]LDKQAQ[Aib]EFVKWLLAQKK([PEG(2)-Pal]) (ends and bridges not checked) [Compound No. 20] |  |  | > 1000 nM | 0.1 nM | 
3 | Y[Aib]EGTFISDYSIALDR[Aib]HQ[Aib]NFVNW[Iva]LAQRPSSGAPPK([PEG3′-PEG3′-C18 diacid])SR (ends and bridges not checked) [Compound No 934] | 0.6 pM | 436 nM |  |  | 
4 | Y[Aib]EGTFISDYSIALDR[Aib]HQ[Aib]NFVNW[Iva]LAQRPSSGAPPPSK([PEG(2)-C20 diacid]) (ends and bridges not checked) [Compound No. 38] |  |  | > 1000 nM | 0.05 nM | 
5 | Y[Aib]EGTFISDYSIALDR[Aib]HQ[Aib]NFVNW[Iva]LAQRPSSGAPPK([PEG3′-PEG3′-C16 diacid])SR (ends and bridges not checked) [Compound No 933] | 0.6 pM | 97.7 nM |  |  | 
6 | Y[Aib]EGTFISDYSIALDR[Aib]HQ[Aib]NFVNW[Iva]LAQRPSSGAPPPSK([PEG3′-PEG3′-AGlu-C18 diacid]) (ends and bridges not checked) [Compound No. 22] |  |  | > 1000 nM | 0.05 nM | 
7 | Y[Aib]EGTFISDYSIALDR[Aib]HQ[Aib]NFVNW[Iva]LAQRPSSGAPPPSK([PEG(2)-C18 diacid]) (ends and bridges not checked) [Compound No. 42] |  |  | > 1000 nM | 0.03 nM | 
8 | Y[Aib]EGTFISDYSIALDR[Aib]HQ[Aib]NFVNW[Iva]LAQRPSSGAPPPK([PEG3′-PEG3′-C16 diacid])R (ends and bridges not checked) [Compound No 939] | 0.6 pM | 1000 nM |  |  | 
9 | Y[Aib]EGTFISDYSIALDR[Aib]HQ[Aib]NFVNW[Iva]LAQRPSSGAPPPSK([PEG3′-PEG3′-AGlu-C16 diacid]) (ends and bridges not checked) [Compound No. 21] |  |  | > 1000 nM | 0.01 nM | 
10 | Y[Aib]EGTFISDYSIALDR[Aib]HQ[Aib]NFVNW[Iva]LAQRPSSGAPPPSK([PEG(2)-C16 diacid]) (ends and bridges not checked) [Compound No. 46] |  |  | > 1000 nM | 0.01 nM | 
11 | Y[Aib]EGTFISDYSIALDR[Aib]HQ[Aib]NFVNW[Iva]LAQRPSSGAPPPSK([PEG3′-PEG3′-AGlu-C20 diacid]) (ends and bridges not checked) [Compound No. 23] |  |  | > 1000 nM | 0.1 nM | 
12 | Y[Aib]EGTFISDYSIALDR[Aib]HQ[Aib]NFVNW[Iva]LAQRPSSGAPPPK([PEG3′-PEG3′-C20 diacid])R (ends and bridges not checked) [Compound No 941] | 0.4 pM | 1000 nM |  |  | 
13 | YXEGTVVSLYSIXLDKQAQXEFVKWLLKGGPSSGAPPPSX (Aib at 2, 13, 20; Lys40(Heda-Gly-Gly-Gly-Gly-); synthesized on Sieber amide resin) [Compound No. 7] |  |  |  |  | > 1000 nM
14 | Y[Aib]EGTFISDYSIALDR[Aib]HQ[Aib]NFVNW[Iva]LAQRPSSGAPK([PEG3′-PEG3′-C20 diacid])PSR (ends and bridges not checked) [Compound No 929] | 1.8 pM | 46.8 nM |  |  | 
15 | Y[Aib]EGTFISDYSIALDR[Aib]HQ[Aib]NFVNW[Iva]LAQRPSSGAPPK([PEG3′-PEG3′-C20 diacid])SR (ends and bridges not checked) [Compound No 935] | 1 pM | 1000 nM |  |  | 
16 | YXEGTFISDYSIALDRXHQXNFVNWXLAQRPSSGAPPPSX (MeTyr (N-methyltyrosine) at 1; Aib at 2, 17, 20; Iva at 26; Lys40(Oda-GlyGlyGlyGlyGly); synthesized on Sieber amide resin) [Compound No. 60] |  |  |  |  | > 1000 nM
17 | Y[Aib]EGTFISDYSIALDR[Aib]HQ[Aib]NFVNW[Iva]LAQRGGGGSGGGGSK([PEG3′-PEG3′-γGlu-C18 diacid]) (ends and bridges not checked) [Compound No 943] | 1.5 pM | 1.2 nM |  |  | 
18 | Y[Aib]EGTFISDYSIALDR[Aib]HQ[Aib]NFVNW[Iva]LAQRPSSGAPPPK([PEG3′-PEG3′-C18 diacid])R (ends and bridges not checked) [Compound No 940] | 0.7 pM | 525 nM |  |  | 
